Experimental data taken from paper doi:10.1101/2022.08.10.503460 (bioRxiv, 2022).

Biological target: Mouse Pcdh15 EC1-2 (mouse, UniProt Q99PJ1 27-259)
Test: AFM force-clamp spectroscopy

koff: 0.2 s⁻¹
B1: Mouse Cdh23 EC1-2 (domain or fragment)
chain: QVNRLPFFTNHFFDTYLLISEDTPVGSSVTQLLARDMDNDPLVFGVSGEEASRFFAVEPDTGVVWLRQPLDRETKSEFTVEFSVSDHQGVITRKVNIQVGDVNDNAPTFHNQPYSVRIPENTPVGTPIFIVNATDPDLGAGGSVLYSFQPPSPFFAIDSARGIVTVIQELDYEVTQAYQLTVNATDQDKTRPLSTLANLAIIITD
